Molecular target: rabbit IgG

Substance: TEM-PA hybrid protein where one repeated domain of the protein A was internalised (from UniProt P62593 24-195; P38507 212-269; P62593 196-286)
- amount of immobilised rabbit IgG that can be detected: 10 to 100 ng
